Values quoted from earlier work, collected in article PMC8526499.
Like-named read-outs stand apart in the source and are kept apart here.

Key:
CD47 (Homo sapiens) [1] = target: CD47 (Homo sapiens) (UniProt Q08722)
CD47 (Homo sapiens) [2] = target: CD47 (Homo sapiens) (UniProt Q08722); remark: listed apart in the source
CD47 (Homo sapiens) [3] = target: CD47 (Homo sapiens) (UniProt Q08722); remark: listed apart in the source
CD47 (Mus musculus) = CD47 (Mus musculus) (UniProt Q61735)
UniProt Q61735, sequence (Q61735 19-303): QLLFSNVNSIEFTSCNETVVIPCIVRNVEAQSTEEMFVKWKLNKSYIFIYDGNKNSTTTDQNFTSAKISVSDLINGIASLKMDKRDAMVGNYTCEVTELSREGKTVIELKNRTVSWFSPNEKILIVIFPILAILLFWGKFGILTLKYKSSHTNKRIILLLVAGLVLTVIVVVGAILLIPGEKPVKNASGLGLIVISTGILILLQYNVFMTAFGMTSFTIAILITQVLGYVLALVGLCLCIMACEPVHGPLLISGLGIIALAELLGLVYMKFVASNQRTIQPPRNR

UniProt Q08722, sequence (Q08722 19-323): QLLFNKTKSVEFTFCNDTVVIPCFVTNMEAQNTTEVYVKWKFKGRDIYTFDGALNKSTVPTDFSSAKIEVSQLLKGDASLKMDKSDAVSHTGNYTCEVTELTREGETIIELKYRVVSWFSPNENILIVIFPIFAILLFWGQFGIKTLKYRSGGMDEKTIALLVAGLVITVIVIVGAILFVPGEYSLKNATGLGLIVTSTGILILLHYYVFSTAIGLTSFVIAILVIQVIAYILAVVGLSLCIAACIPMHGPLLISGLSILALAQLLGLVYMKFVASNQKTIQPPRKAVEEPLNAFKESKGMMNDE

Substance: SIRPα (from UniProt P78324)
- Kd (CD47 (Homo sapiens) [1]): 450 nM

Substance: SIRPα (NOD) (from UniProt P97797)
- Kd (CD47 (Homo sapiens) [2]): 80 nM

Substance: SIRPα (C57BL/6) (from UniProt P97797)
- Kd (CD47 (Homo sapiens) [3]): 5000 nM
- Kd (CD47 (Mus musculus)): 5000 nM
